Residue numbers refer to the chain shown, from its start. Each block holds one binder with its values, some of them ahead of it.
How the values were obtained:
[1] = molecular target: T1, 人TROP2-his (CAT#10428-H08H-100, Sino biological) (human, UniProt P09758 27-274); test: SPR (Biacore), antibody captured by human Fab capture on CM5, human TROP2-his flowed
T1 construct: Bought; also called 人TROP2-his抗原; not shown: His tag
T1 sequence (looked up): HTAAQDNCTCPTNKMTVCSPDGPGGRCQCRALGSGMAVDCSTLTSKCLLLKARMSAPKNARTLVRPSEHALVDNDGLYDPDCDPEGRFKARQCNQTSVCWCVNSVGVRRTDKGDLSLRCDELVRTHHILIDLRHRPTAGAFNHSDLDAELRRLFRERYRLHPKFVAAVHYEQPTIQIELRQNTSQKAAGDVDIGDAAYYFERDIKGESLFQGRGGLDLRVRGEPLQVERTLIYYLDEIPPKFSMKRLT

[2] = molecular target: 人源TROP2, full length, on transfected cells (CHOK1-hTROP2 2B2; 293F-TROP2 6F6) (human) (UniProt P09758); test: FACS on CHOK1-TROP2 cells
[3] = molecular target: T2, 食蟹猴TROP2, full length, on CHOK1 cells (CHOK1-cTROP2 2B2C2) (cynomolgus monkey, UniProt P09758 27-323 (human entry)); test: FACS on CHOK1-cTROP2 cells
T2 chain: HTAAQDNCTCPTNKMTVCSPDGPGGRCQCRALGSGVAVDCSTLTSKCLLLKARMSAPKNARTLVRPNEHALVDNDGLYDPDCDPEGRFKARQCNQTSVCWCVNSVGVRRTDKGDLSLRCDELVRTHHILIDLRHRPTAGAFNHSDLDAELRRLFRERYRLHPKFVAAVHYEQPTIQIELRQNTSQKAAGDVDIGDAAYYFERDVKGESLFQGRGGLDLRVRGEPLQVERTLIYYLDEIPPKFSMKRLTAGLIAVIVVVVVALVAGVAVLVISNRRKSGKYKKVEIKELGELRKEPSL

[4] = molecular target: T3, 人源TROP2, full length, on transfected cells (CHOK1-hTROP2 2B2; 293F-TROP2 6F6) (human, UniProt P09758 27-323); test: FACS on CHOK1-hTROP2 cells
T3 construct: Full-length human TROP2 expressed from pIRES in CHOK1 or HEK293 cells; the host cell is named under assay; also called CHOk1-TROP2; CHOK-TROP2
T3 sequence: T2 chain with V36M, N67S, V204I, V266M, S272T

[5] = molecular target: T4, 人源TROP2-hFc蛋白 (免疫原A; human TROP2 Thr88-Thr274 with human IgG Fc tag) (human, UniProt P09758 88-274); test: ELISA, hTROP2-hFc coated at 1.0 μg/mL
T4 construct: also called hTROP2-hFc; 人TROP2-hFc蛋白; not shown: human IgG Fc fragment (hFc) of the pCpC vector
T4 sequence: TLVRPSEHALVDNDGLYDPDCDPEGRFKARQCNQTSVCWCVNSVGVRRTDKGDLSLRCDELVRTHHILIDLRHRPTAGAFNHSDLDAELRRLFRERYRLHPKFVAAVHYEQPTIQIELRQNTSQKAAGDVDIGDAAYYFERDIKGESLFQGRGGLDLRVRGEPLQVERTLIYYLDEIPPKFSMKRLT

[6] = molecular target: T3, 人源TROP2, full length, on transfected …; test: FACS on CHOK1-TROP2 cells (reference antibody)
[7] = molecular target: T3, 人源TROP2, full length, on transfected …; test: FACS on CHOK1-TROP2 cells

Kd [1]: 20.7 nM
koff [1]: 0.00293 s⁻¹
kon [1]: 141000 M⁻¹ s⁻¹
B2: hTINA1-H1L1 (antibody, V domains shown)
VH: QVQLVQSGAEVKKPGASVKVSCKASGYTFTTAGMQWVRQAPGQGLEWMGWINTHSGVPKYAEDFKGRVTISADTSTSTAYLQLSSLKSEDTAVYYCARSGFGSSYWYFDVWGQGTLVTVSS
VL: DIQMTQSPSSLSASVGDRVTITCKASQDVSTAVAWYQQKPGKAPKLLIYSASYRYTGVPSRFSGSGSGTDFTLTISSLQPEDFAVYYCQQHYITPLTFGQGTKLEIKR

decrease of maximal MFI against wild-type chimeric 11E8 [2]: 53%
B3: 嵌合抗体11E8-3 (heavy chain CDR2 DG→EG) (antibody, human IgG1, V domains shown)
VH: QVQLQQSGAELVRPGSSVKISCKASGVAFSTYWMNWVRQRPGQGLEWIGQIYPGEGDTNSNGKFKGKATLTADKSSSTAYMQFSSLTSEDSAVYFCATRIPDHYGSDWGYFDVWGAGTTV
VL: DIVLTQSPASLAVSLGQRATISCRASKSVSTSGYSYMHWYQQKPGQPPKLLIYLASNLESGVPARFSGSGSGTDFTLNIHPVEEEDAATYYCQHSRELPPTFGGGTKLEIK

Kd [1]: 10.3 nM
koff [1]: 0.00107 s⁻¹
kon [1]: 105000 M⁻¹ s⁻¹
B6: 嵌合抗体11E8(DA,NA) (antibody, V domains shown)
VH: B3 VH with E55D, G56A, G62A
VL: B3 VL

decrease of maximal MFI against wild-type chimeric 11E8 [2]: 23%
B7: 嵌合抗体11E8-2 (heavy chain CDR2 DG→SG) (antibody, human IgG1, V domains shown)
VH: B3 VH with E55S
VL: B3 VL

Continued, binder first:

B1: hRS7 (antibody, V domains shown)
VH: QVQLQQSGSELKKPGASVKVSCKASGYTFTNYGMNWVKQAPGQGLKWMGWINTYTGEPTYTDDFKGRFAFSLDTSVSTAYLQISSLKADDTAVYFCARGGFGSSYWYFDVWGQGSLVTVSS
VL: B2 VL with M4L, T20S, T31I, S60D, Q100A, L104V
Kd [1]: 1.21 nM
koff [1]: 0.000271 s⁻¹
kon [1]: 225000 M⁻¹ s⁻¹

B4: TROP2抗体 11E8E6D11 (antibody, V domains shown)
VH: B3 VH with E55D
VL: B3 VL
notes: Mouse hybridoma antibody
binding result [3]: binds
binding result [4]: binds
binding result [5]: binds

B5: 嵌合抗体11E8 (野生型) (antibody, V domains shown)
VH: B3 VH with E55D
VL: B3 VL
notes: also called 野生型抗体嵌合抗体11E8
binding result [6]: binds

B8: 嵌合抗体11E8-1 (heavy chain CDR2 NG→NA) (antibody, human IgG1, V domains shown)
VH: B3 VH with E55D, G62A
VL: B3 VL
notes: Human IgG1/kappa chimera; also called 突变抗体嵌合抗体11E8-1
binding result [7]: binds

B9: 嵌合抗体11E8-4 (heavy chain CDR2 DG→DA) (antibody, human IgG1, V domains shown)
VH: B3 VH with E55D, G56A
VL: B3 VL
notes: Human IgG1/kappa chimera; also called 突变体嵌合抗体11E8-4
binding result [7]: binds
